# Test results: patent US20110251256A1 (KOREA UNIVERSITY INDUSTRIAL AND ACADEMIC COLLABORATIVE …, published 2011)
# B1: M-Cadherin (endogenous protein of C2C12 myotubes) (other, UniProt P33146 60-784, looked up)
# chain: LPYPLVQIKSDKQQLGSVIYSIQGPGVDEEPRNVFSIDKFTGRVYLNATLDREKTDRFRLRAFALDLGGSTLEDPTDLEIVVVDQNDNRPAFLQDVFRGRILEGAIPGTFVTRAEATDADDPETDNAALRFSILEQGSPEFFSIDEHTGEIRTVQVGLDREVVAVYNLTLQVADMSGDGLTATASAIISIDDINDNAPEFTKDEFFMEAAEAVSGVDVGRLEVEDKDLPGSPNWVARFTILEGDPDGQFKIYTDPKTNEGVLSVVKPLDYESREQYELRVSVQNEAPLQAAAPRARRGQTRVSVWVQDTNEAPVFPENPLRTSIAEGAPPGTSVATFSARDPDTEQLQRISYSKDYDPEDWLQVDGATGRIQTQRVLSPASPFLKDGWYRAIILALDNAIPPSTATGTLSIEILEVNDHAPALALPPSGSLCSEPDQGPGLLLGATDEDLPPHGAPFHFQLNPRVPDLGRNWSVSQINVSHARLRLRHQVSEGLHRLSLLLQDSGEPPQQREQTLNVTVCRCGSDGTCLPGAAALRGGGVGVSLGALVIVLASTVVLLVLILLAALRTRFRGHSRGKSLLHGLQEDLRDNILNYDEQGGGEEDQDAYDINQLRHPVEPRATSRSLGRPPLRRDAPFSYVPQPHRVLPTSPSDIANFISDGLEAADSDPSVPPYDTALIYDYEGDGSVAGTLSSILSSLGDEDQDYDYLRDWGPRFARLADMYGHQ
# B2: TRIM72 (endogenous protein of C2C12 myotubes) (enzyme)
# chain: MSAAPGLLRQELSCPLCLQLFDAPVTAECGHSFCRACLIRVAGEPAADGTVACPCCQAPTRPQALSTNLQLSRLVEGLAQVPQGHCEEHLDPLSIYCEQDRTLVCGVCASLGSHRGHRLLPAAEAQARLKTQLPQQKMQLQEACMRKEKTVAVLEHQLVEVEETVRQFRGAVGEQLGKMRMFLAALESSLDREAERVRGDAGVALRRELSSLNSYLEQLRQMEKVLEEVADKPQTEFLMKFCLVTSRLQKILSESPPPARLDIQLPVISDDFKFQVWKKMFRALMPALEELTFDPSSAHPSLVVSSSGRRVECSDQKAPPAGEDTRQFDKAVAVVAQQLLSQGEHYWEVEVGDKPRWALGVMAADASRRGRLHAVPSQGLWLLGLRDGKILEAHVEAKEPRALRTPERPPARIGLYLSFADGVLAFYDASNPDVLTPIFSFHERLPGPVYPIFDVCWHDKGKNAQPLLLVGPEQEQA
# notes: Endogenous protein in lysates of C2C12 myotubes; also called tripartite motif-containing 72
# Tests used:
# [1] = target: T1, β-Catenin (endogenous protein of C2C12 myotubes) (UniProt Q02248 2-781); assay: immunoprecipitation from myotubes treated with Si-Control or Si-TRIM72 (FIG. 12F)
# T1 construct: also called 13-Catenin
# T1 sequence (looked up): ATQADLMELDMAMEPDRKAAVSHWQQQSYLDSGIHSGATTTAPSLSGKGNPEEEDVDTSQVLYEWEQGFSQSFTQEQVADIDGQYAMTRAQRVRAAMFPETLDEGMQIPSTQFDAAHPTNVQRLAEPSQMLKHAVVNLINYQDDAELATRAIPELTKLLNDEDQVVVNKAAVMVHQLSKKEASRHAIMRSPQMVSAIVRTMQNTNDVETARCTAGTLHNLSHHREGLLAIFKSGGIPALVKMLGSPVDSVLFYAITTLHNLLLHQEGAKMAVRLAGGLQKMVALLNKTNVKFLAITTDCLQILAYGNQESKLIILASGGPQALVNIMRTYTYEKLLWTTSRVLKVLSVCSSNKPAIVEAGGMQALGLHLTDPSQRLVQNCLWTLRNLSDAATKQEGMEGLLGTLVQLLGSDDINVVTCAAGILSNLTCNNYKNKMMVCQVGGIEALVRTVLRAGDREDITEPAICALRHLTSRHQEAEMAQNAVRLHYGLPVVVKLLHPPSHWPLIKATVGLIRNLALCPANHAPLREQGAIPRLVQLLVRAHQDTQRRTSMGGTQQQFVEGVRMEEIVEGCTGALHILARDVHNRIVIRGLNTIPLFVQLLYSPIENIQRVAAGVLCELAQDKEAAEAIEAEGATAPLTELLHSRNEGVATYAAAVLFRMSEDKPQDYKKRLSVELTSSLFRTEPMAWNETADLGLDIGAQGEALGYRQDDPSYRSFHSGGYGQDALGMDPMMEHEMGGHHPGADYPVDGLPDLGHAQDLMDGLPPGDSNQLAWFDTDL
# [2] = target: T2, IRS-1 (endogenous protein of C2C12 cells), P35569
# T2 chain: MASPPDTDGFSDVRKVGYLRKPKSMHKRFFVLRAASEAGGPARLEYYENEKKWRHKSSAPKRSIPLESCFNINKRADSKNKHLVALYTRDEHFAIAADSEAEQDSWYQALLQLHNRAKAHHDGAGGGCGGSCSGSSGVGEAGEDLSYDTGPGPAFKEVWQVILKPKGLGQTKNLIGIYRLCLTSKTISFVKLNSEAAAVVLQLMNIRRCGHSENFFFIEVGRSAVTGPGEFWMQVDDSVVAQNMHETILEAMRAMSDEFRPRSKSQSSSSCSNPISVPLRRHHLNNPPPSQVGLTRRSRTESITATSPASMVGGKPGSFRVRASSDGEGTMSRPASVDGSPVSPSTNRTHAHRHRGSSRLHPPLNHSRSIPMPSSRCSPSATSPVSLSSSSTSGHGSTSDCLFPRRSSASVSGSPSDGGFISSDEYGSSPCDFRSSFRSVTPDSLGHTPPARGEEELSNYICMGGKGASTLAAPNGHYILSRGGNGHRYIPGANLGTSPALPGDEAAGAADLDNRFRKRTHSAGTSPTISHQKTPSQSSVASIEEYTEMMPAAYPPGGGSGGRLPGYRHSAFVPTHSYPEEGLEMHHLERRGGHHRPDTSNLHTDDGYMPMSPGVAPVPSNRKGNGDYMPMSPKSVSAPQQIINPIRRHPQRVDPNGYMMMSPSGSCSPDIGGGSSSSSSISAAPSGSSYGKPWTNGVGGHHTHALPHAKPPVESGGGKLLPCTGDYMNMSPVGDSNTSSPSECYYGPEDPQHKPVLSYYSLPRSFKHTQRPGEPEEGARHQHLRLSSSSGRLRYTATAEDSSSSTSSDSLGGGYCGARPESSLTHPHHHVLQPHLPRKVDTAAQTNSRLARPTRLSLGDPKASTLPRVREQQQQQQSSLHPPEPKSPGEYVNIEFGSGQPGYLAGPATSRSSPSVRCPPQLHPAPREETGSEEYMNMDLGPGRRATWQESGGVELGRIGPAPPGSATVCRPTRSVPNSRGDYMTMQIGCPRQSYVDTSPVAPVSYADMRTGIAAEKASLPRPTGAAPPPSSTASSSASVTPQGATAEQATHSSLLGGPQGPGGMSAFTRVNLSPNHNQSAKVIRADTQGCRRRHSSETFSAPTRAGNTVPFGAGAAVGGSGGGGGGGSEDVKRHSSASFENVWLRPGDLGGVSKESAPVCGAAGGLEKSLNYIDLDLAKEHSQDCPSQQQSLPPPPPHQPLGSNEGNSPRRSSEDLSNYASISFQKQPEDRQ
# [3] = target: T3, M-Cadherin (endogenous protein of C2C12 myotubes), P33146
# T3 chain: B1 chain
# [4] = target: T4, IRS-1 (endogenous protein of C2C12 cells) (UniProt P35569 1-1233); assay: endogenous immunoprecipitation in C2C12 myotubes treated with IGF-I for 0, 5 and 30 minutes (FIG. 9A)
# T4 construct: also called insulin receptor substrate-1
# T4 sequence (looked up): T2 chain
# Procedure: Western blotting and immunostaining were performed as described in Kim, K. B. et al. Proteomics 6, 2444-53 (2006). For immunoprecipitation, cells were lysed in buffer containing 20 mM Tris-HCl pH 7.4, 137 mM NaCl, 1 mM MgCl₂, 1 mM CaCl₂, 20 mM NaF, 10 mM Na₄P₂O₇, 1% NP-40, 1 mM Na₃VO₄, 1 mM PMSF and protease inhibitor cocktail (Roche). The whole cell lysates (600 μg protein) were incubated with specific antibodies for 90 min and then with 50 μl of Protein A-sepharose or G-agarose bead (50%) slurry for 1 h. The immunoprecipitates were analyzed by Western blotting.
# Next, the effect of TRIM72 on IGF-1-induced tyrosine phosphorylation of IGFR and IRS-1 was investigated. The tyrosine phosphorylation of IGFR induced by IGF-I was not changed by TRIM72 overexpression or knockdown (FIG. 8). […] Moreover, the molecular association of IRS-1 with PI3K after IGF-I stimulation was weakened by TRIM72 overexpression, but fortified by TRIM72 knockdown. […] In order to analyze the binding domains of TRIM72 and IRS-1, various mutants of both genes were manufactured (FIG. 9B) and transfected into 293 cells. Then, the binding activity was investigated by immunoprecipitation. […] It should be noted that the 293 cells were treated with MG132 (proteasome inhibitor) after transferring IRS-1 and TRIM72.
# [5] = target: B1; assay: immunoprecipitation of myotube protein with TRIM72 antibody or M-Cadherin antibody (FIGS. 12G and 12H)
Binder,binding result [1],molecular association of IRS-1 with PI3K after IGF-I stimulation [2],tyrosine phosphorylation of IRS-1 induced by IGF-I [2],ubiquitination of M-Cadherin in myotubes with reduced TRIM72 [3],binding result [4],binding result [5]
B1,binds,–,–,–,–,–
B2,–,"the molecular association of IRS-1 with PI3K after IGF-I stimulation was weakened by TRIM72 overexpression, but fortified by TRIM72 knockdown","the tyrosine phosphorylation of IRS-1 was decreased by TRIM72 overexpression, but increased by TRIM72 knockdown","Si-Control treated cells showed stained band (which denotes ubiquitination), whereas Si-TRIM72-treated cells did not",binds,binds
